Reference: patent publication US8530190 (MERCK SERONO, dated 2013)
Values belong to the binder of their own block, whether it stands above or below them.

Legend:
[1] = target: T1, rat LH receptor (rat, UniProt P16235 27-700); assay: hormone-receptor complex formation (Table 1D)
T1 construct: whole, on cells; also called LH receptors

[2] = target: T2, human FSH receptor (human, UniProt P23945 18-695); assay: hormone-receptor complex formation (Table 1D)
T2 construct: whole, on cells; also called hFSH receptors
T2 sequence (looked up): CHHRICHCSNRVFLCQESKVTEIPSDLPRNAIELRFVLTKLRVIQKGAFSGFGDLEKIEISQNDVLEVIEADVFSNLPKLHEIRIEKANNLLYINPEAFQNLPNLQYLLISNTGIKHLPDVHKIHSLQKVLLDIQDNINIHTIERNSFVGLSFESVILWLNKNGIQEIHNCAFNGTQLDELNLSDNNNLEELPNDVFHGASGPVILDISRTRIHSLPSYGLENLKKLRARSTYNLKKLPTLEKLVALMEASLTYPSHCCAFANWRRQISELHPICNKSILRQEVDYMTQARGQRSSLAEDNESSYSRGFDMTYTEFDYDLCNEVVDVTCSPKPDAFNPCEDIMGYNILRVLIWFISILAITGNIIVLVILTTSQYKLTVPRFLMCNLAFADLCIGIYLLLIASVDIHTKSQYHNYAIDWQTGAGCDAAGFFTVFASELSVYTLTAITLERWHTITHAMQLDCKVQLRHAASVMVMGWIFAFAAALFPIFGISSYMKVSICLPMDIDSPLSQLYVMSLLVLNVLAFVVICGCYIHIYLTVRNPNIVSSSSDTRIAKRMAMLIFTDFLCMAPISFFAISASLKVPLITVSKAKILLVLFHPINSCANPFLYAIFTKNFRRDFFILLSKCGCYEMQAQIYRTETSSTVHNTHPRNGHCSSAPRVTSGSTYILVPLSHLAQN

[3] = target: T1, rat LH receptor; assay: inhibition of radiolabeled hCG binding to LH receptors (FIG. 22)
[4] = target: T1, rat LH receptor; assay: inhibition of radiolabeled hCG binding to LH receptors (FIG. 23)
[5] = target: T1, rat LH receptor; assay: receptor binding and signal transduction assays
[6] = target: T2, human FSH receptor; assay: receptor binding and signal transduction assays
[7] = target: T1, rat LH receptor; assay: competition with radiolabeled hCG on CHO cells expressing LH receptors (FIG. 18)
Excerpt: (§1) These employed CHO cells that had been transfected with the genes encoding the LH receptor cDNA and that therefore express functional LH receptors on their surfaces.

[8] = target: T1, rat LH receptor; assay: inhibition of 125I-hCG binding to CHO cells expressing LH receptors (FIG. 17)
Excerpt: as §1

[9] = target: T1, rat LH receptor; assay: inhibition of 125I-hCG binding to 200,000 CHO cells that express LH receptors (FIG. 6)
Excerpt: as §1

[10] = target: T1, rat LH receptor; assay: inhibition of 125I-hCG binding to CHO cells expressing LH receptors (FIG. 30)
Excerpt: as §1

T1 sequence (P16235 27-700): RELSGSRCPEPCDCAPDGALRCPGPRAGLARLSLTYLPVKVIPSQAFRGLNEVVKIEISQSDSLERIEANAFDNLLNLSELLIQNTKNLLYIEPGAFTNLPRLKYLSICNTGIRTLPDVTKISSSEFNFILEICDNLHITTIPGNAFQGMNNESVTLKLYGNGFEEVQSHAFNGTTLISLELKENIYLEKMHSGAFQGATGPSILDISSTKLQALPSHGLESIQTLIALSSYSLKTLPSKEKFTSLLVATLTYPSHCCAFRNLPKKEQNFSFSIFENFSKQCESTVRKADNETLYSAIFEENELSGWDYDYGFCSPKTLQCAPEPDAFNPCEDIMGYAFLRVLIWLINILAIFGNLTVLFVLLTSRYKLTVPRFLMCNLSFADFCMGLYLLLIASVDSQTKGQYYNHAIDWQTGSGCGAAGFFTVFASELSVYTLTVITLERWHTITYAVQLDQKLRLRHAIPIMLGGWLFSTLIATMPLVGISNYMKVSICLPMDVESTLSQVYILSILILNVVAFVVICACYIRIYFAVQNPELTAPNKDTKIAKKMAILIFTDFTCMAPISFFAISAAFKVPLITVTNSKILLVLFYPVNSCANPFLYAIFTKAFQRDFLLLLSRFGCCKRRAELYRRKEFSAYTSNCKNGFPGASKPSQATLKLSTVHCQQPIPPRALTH

binding result [1]: binds | binding result [2]: binds
B1: CF101-109 (ligand)
chain 1: not shown
chain 2: SKEPLRPRCRPINATLAVEKEGCPVCITVNTTICAGYCPTMTRVLQGVLPALPQVVCNYRDVRFESIRLPGCPRGVNPVVSYAVALSCQCALCRRSTTDCTVRGLGPSYCDDPRFQDSSSSKAPPPSLPSPSRLPGPSDTPILPQ

fold less active than CFC101-114 in inhibiting radiolabeled hCG binding [3]: ~100 fold
B2: CFC101-114(α51-β99) (ligand)
chain 1: not shown
chain 2: SKEPLRPRCRPINATLAVEKEGCPVCITVNTTICAGYCPTMTRVLQGVLPALPQVVCNYRDVRFESIRLPGCPRGVNPVVSYAVALSCQCALCRRSTTCCTVRGLGPSYCSFGEFQDSSSSKAPPPSLPSPSRLPGPSDTPILPQ
notes: Intersubunit disulfide αCys51-βCys99; also called CFC101(α51-β99)

binding result [3]: binds
B3: CFC101-114(α-βD99C) (ligand)
chain 1: not shown
chain 2: SKEPLRPRCRPINATLAVEKEGCPVCITVNTTICAGYCPTMTRVLQGVLPALPQVVCNYRDVRFESIRLPGCPRGVNPVVSYAVALSCQCALCRRSTTCCTVRGLGPSYCSFGEFQDSSSSKAPPPSLPSPSRLPGPSDTPILPQ

binding result [3]: binds
B4: CFC101-114(αK51C-β) (ligand)
chain 1: not shown
chain 2: SKEPLRPRCRPINATLAVEKEGCPVCITVNTTICAGYCPTMTRVLQGVLPALPQVVCNYRDVRFESIRLPGCPRGVNPVVSYAVALSCQCALCRRSTTDCTVRGLGPSYCSFGEFQDSSSSKAPPPSLPSPSRLPGPSDTPILPQ

binding result [4]: binds
B5: CFC101-114(αK51A-β) (ligand)
chain 1: not shown
chain 2: SKEPLRPRCRPINATLAVEKEGCPVCITVNTTICAGYCPTMTRVLQGVLPALPQVVCNYRDVRFESIRLPGCPRGVNPVVSYAVALSCQCALCRRSTTDCTVRGLGPSYCSFGEFQDSSSSKAPPPSLPSPSRLPGPSDTPILPQ
notes: built on the mature α-subunit entry

binding result [5]: binds | binding result [6]: binds
B6: CFC101-114 (ligand)
chain 1: not shown
chain 2: SKEPLRPRCRPINATLAVEKEGCPVCITVNTTICAGYCPTMTRVLQGVLPALPQVVCNYRDVRFESIRLPGCPRGVNPVVSYAVALSCQCALCRRSTTDCTVRGLGPSYCSFGEFQDSSSSKAPPPSLPSPSRLPGPSDTPILPQ
notes: also called bifunctional hCG/hFSH chimeric analog

binding result [7]: binds
B7: hCG(αK51A-β) (ligand)
chain 1: not shown
chain 2: SKEPLRPRCRPINATLAVEKEGCPVCITVNTTICAGYCPTMTRVLQGVLPALPQVVCNYRDVRFESIRLPGCPRGVNPVVSYAVALSCQCALCRRSTTDCGGPKDHPLTCDDPRFQDSSSSKAPPPSLPSPSRLPGPSDTPILPQ
notes: as for B5

binding result [5]: binds | binding result [6]: binds
B8: CFC101-114(α31-β37) (ligand)
chain 1: not shown
chain 2: SKEPLRPRCRPINATLAVEKEGCPVCITVNTTICAGCCPTMTRVLQGVLPALPQVVCNYRDVRFESIRLPGCPRGVNPVVSYAVALSCQCALCRRSTTDCTVRGLGPSYCSFGEFQDSSSSKAPPPSLPSPSRLPGPSDTPILPQ
notes: Intersubunit disulfide αCys31-βCys37

binding result [8]: binds
B9: hCG(α-βD99C) (ligand)
chain 1: not shown
chain 2: SKEPLRPRCRPINATLAVEKEGCPVCITVNTTICAGYCPTMTRVLQGVLPALPQVVCNYRDVRFESIRLPGCPRGVNPVVSYAVALSCQCALCRRSTTCCGGPKDHPLTCDDPRFQDSSSSKAPPPSLPSPSRLPGPSDTPILPQ
notes: also called hCG(α-β99)

binding result [9]: binds
B10: hCG(α31-β37) (ligand)
chain 1: not shown
chain 2: SKEPLRPRCRPINATLAVEKEGCPVCITVNTTICAGCCPTMTRVLQGVLPALPQVVCNYRDVRFESIRLPGCPRGVNPVVSYAVALSCQCALCRRSTTDCGGPKDHPLTCDDPRFQDSSSSKAPPPSLPSPSRLPGPSDTPILPQ
notes: Intersubunit disulfide αCys31-βCys37; also called hCG3(α31-β37); crosslinked hCG analog

binding result [10]: binds
B11: hCG(α31-β37, α51-β99) (ligand)
chain 1: not shown
chain 2: SKEPLRPRCRPINATLAVEKEGCPVCITVNTTICAGCCPTMTRVLQGVLPALPQVVCNYRDVRFESIRLPGCPRGVNPVVSYAVALSCQCALCRRSTTCCGGPKDHPLTCDDPRFQDSSSSKAPPPSLPSPSRLPGPSDTPILPQ
notes: Two intersubunit disulfides; also called α(C7S,K51C) + hCGβ′(Y37C,D99C)
